Data as given in the supplement of paper PMC10567573.

B1: SMG5 (parent)
chain: QEKLQVLMAEGLLPAVKVFLDWLR

Variants of: B1
Assay: protein stability index of a GFP-peptide fusion (GPS, HEK-293T) (PSI 1-6); higher = more stable
Details: c terminus: a fixed tail appended
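Further: lentivirally expressed fusions sorted by FACS into six bins by GFP to DsRed ratio, PSI derived from sequencing read proportions per bin multiplied by bin number.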

Going from QEKLQVLMAETLLPAVKVFLDWLR [G11T] to QEKLQVLMAEILLPAVKVFLDWLR [G11I], the protein stability index falls from 2.44 to 1.81.

Compared with QEKLQVLMAEALLPAVKVFLDWLR [G11A], QEKLQVLMAEQLLPAVKVFLDWLR [G11Q] is lower in protein stability index: 2.28 for the first, 1.69 for the second.

Compared with QEKLQVLMAEDLLPAVKVFLDWLR [G11D], QEKLQVLMAEMLLPAVKVFLDWLR [G11M] is higher in protein stability index: 1.64 for the first, 2.38 for the second.

First: QEKLQVLMAEPLLPAVKVFLDWLR [G11P]
Second: QEKLQVLMAENLLPAVKVFLDWLR [G11N]
The protein stability index of the first is higher: 2.2 for the first, 1.52 for the second.

Compared with QEKLQVLMAEYLLPAVKVFLDWLR [G11Y], QEKLQVLMAEVLLPAVKVFLDWLR [G11V] is higher in protein stability index: 2.29 for the first, 2.56 for the second.

First: QEKLQVLMAEWLLPAVKVFLDWLR [G11W]
Second: QEKLQVLMAEELLPAVKVFLDWLR [G11E]
The protein stability index of the first is higher: 2.23 for the first, 1.6 for the second.

Compared with QEKLQVLMAEFLLPAVKVFLDWLR [G11F], QEKLQVLMAERLLPAVKVFLDWLR [G11R] is higher in protein stability index: 1.84 for the first, 2.04 for the second.

Compared with QEKLQVLMAESLLPAVKVFLDWLR [G11S], QEKLQVLMAELLLPAVKVFLDWLR [G11L] is lower in protein stability index: 1.99 for the first, 1.6 for the second.

Going from QEKLQVLMAEKLLPAVKVFLDWLR [G11K] to QEKLQVLMAECLLPAVKVFLDWLR [G11C], the protein stability index rises from 1.6 to 1.99.

QEKLQVLMAEHLLPAVKVFLDWLR [G11H] and QEKLQVLMAEGLNPAVKVFLDWLR [L13N] are the same in protein stability index: 1.99 for the first, 1.99 for the second.

First: QEKLQVLMAEGLHPAVKVFLDWLR [L13H]
Second: QEKLQVLMAEGLFPAVKVFLDWLR [L13F]
The protein stability index of the first is higher: 2.6 for the first, 1.38 for the second.

First: QEKLQVLMAEGLWPAVKVFLDWLR [L13W]
Second: QEKLQVLMAEGLEPAVKVFLDWLR [L13E]
The protein stability index of the first is higher: 2.62 for the first, 1.09 for the second.

Compared with QEKLQVLMAEGLAPAVKVFLDWLR [L13A], QEKLQVLMAEGLKPAVKVFLDWLR [L13K] is lower in protein stability index: 2.36 for the first, 1.62 for the second.

Compared with QEKLQVLMAEGLCPAVKVFLDWLR [L13C], QEKLQVLMAEGLYPAVKVFLDWLR [L13Y] is higher in protein stability index: 2.25 for the first, 3.17 for the second.

First: QEKLQVLMAEGLPPAVKVFLDWLR [L13P]
Second: QEKLQVLMAEGLQPAVKVFLDWLR [L13Q]
The protein stability index of the first is higher: 2.6 for the first, 1.71 for the second.

Going from QEKLQVLMAEGLSPAVKVFLDWLR [L13S] to QEKLQVLMAEGLGPAVKVFLDWLR [L13G], the protein stability index falls from 2.78 to 2.17.

Going from QEKLQVLMAEGLTPAVKVFLDWLR [L13T] to QEKLQVLMAEGLMPAVKVFLDWLR [L13M], the protein stability index rises from 1.29 to 2.27.

First: QEKLQVLMAEGLRPAVKVFLDWLR [L13R]
Second: QEKLQVLMAEGLVPAVKVFLDWLR [L13V]
The protein stability index of the first is lower: 1.37 for the first, 2.04 for the second.

Compared with QEKLQVLMAEGLDPAVKVFLDWLR [L13D], QEKLQVLMAEGLLPVVKVFLDWLR [A15V] is lower in protein stability index: 1.98 for the first, 1.88 for the second.

First: QEKLQVLMAEGLLPQVKVFLDWLR [A15Q]
Second: QEKLQVLMAEGLLPEVKVFLDWLR [A15E]
The protein stability index of the first is higher: 2.21 for the first, 2 for the second.

First: QEKLQVLMAEGLLPTVKVFLDWLR [A15T]
Second: QEKLQVLMAEGLLPHVKVFLDWLR [A15H]
The protein stability index of the first is higher: 3.37 for the first, 1.99 for the second.

First: QEKLQVLMAEGLLPGVKVFLDWLR [A15G]
Second: QEKLQVLMAEGLLPWVKVFLDWLR [A15W]
The protein stability index of the first is higher: 2.45 for the first, 1.88 for the second.

First: QEKLQVLMAEGLLPIVKVFLDWLR [A15I]
Second: QEKLQVLMAEGLLPDVKVFLDWLR [A15D]
The protein stability index of the first is higher: 1.76 for the first, 1.66 for the second.

Compared with QEKLQVLMAEGLLPYVKVFLDWLR [A15Y], QEKLQVLMAEGLLPSVKVFLDWLR [A15S] is lower in protein stability index: 2.5 for the first, 2.39 for the second.

First: QEKLQVLMAEGLLPMVKVFLDWLR [A15M]
Second: QEKLQVLMAEGLLPPVKVFLDWLR [A15P]
The protein stability index of the first is higher: 2.05 for the first, 1.86 for the second.

First: QEKLQVLMAEGLLPCVKVFLDWLR [A15C]
Second: QEKLQVLMAEGLLPRVKVFLDWLR [A15R]
The protein stability index of the first is lower: 2.72 for the first, 4.13 for the second.

First: QEKLQVLMAEGLLPNVKVFLDWLR [A15N]
Second: QEKLQVLMAEGLLPFVKVFLDWLR [A15F]
The protein stability index of the first is lower: 2.4 for the first, 2.42 for the second.

Compared with QEKLQVLMAEGLLPLVKVFLDWLR [A15L], QEKLQVLHAEGLLPAVKVFLDWLR [M8H] is higher in protein stability index: 1.63 for the first, 4.3 for the second.

First: QEKLQVLLAEGLLPAVKVFLDWLR [M8L]
Second: QEKLQVLKAEGLLPAVKVFLDWLR [M8K]
The protein stability index of the first is lower: 2.48 for the first, 2.8 for the second.

Going from QEKLQVLFAEGLLPAVKVFLDWLR [M8F] to QEKLQVLRAEGLLPAVKVFLDWLR [M8R], the protein stability index rises from 1.36 to 3.01.

Compared with QEKLQVLNAEGLLPAVKVFLDWLR [M8N], QEKLQVLCAEGLLPAVKVFLDWLR [M8C] is lower in protein stability index: 2.57 for the first, 2.26 for the second.

First: QEKLQVLSAEGLLPAVKVFLDWLR [M8S]
Second: QEKLQVLIAEGLLPAVKVFLDWLR [M8I]
The protein stability index of the first is lower: 1.31 for the first, 1.9 for the second.

Compared with QEKLQVLYAEGLLPAVKVFLDWLR [M8Y], QEKLQVLGAEGLLPAVKVFLDWLR [M8G] is lower in protein stability index: 3.06 for the first, 2.85 for the second.

First: QEKLQVLWAEGLLPAVKVFLDWLR [M8W]
Second: QEKLQVLVAEGLLPAVKVFLDWLR [M8V]
The protein stability index of the first is lower: 2.3 for the first, 3.7 for the second.

Going from QEKLQVLAAEGLLPAVKVFLDWLR [M8A] to QEKLQVLQAEGLLPAVKVFLDWLR [M8Q], the protein stability index rises from 2.54 to 2.85.

Compared with QEKLQVLEAEGLLPAVKVFLDWLR [M8E], QEKLQVLDAEGLLPAVKVFLDWLR [M8D] is lower in protein stability index: 2.44 for the first, 1.8 for the second.

Compared with QEKLQVLTAEGLLPAVKVFLDWLR [M8T], QEKLQVLMAEGDLPAVKVFLDWLR [L12D] is lower in protein stability index: 3.02 for the first, 2.16 for the second.

Going from QEKLQVLMAEGILPAVKVFLDWLR [L12I] to QEKLQVLMAEGYLPAVKVFLDWLR [L12Y], the protein stability index rises from 2.14 to 2.32.

Going from QEKLQVLMAEGWLPAVKVFLDWLR [L12W] to QEKLQVLMAEGRLPAVKVFLDWLR [L12R], the protein stability index rises from 1.8 to 3.06.

Going from QEKLQVLMAEGMLPAVKVFLDWLR [L12M] to QEKLQVLMAEGALPAVKVFLDWLR [L12A], the protein stability index rises from 1.22 to 1.61.

First: QEKLQVLMAEGGLPAVKVFLDWLR [L12G]
Second: QEKLQVLMAEGHLPAVKVFLDWLR [L12H]
The protein stability index of the first is higher: 1.79 for the first, 1.25 for the second.

Going from QEKLQVLMAEGFLPAVKVFLDWLR [L12F] to QEKLQVLMAEGSLPAVKVFLDWLR [L12S], the protein stability index rises from 1.91 to 2.42.

First: QEKLQVLMAEGVLPAVKVFLDWLR [L12V]
Second: QEKLQVLMAEGNLPAVKVFLDWLR [L12N]
The protein stability index of the first is lower: 1.39 for the first, 1.82 for the second.

Compared with QEKLQVLMAEGELPAVKVFLDWLR [L12E], QEKLQVLMAEGPLPAVKVFLDWLR [L12P] is higher in protein stability index: 2.32 for the first, 3.4 for the second.

Going from QEKLQVLMAEGKLPAVKVFLDWLR [L12K] to QEKLQVLMAEGTLPAVKVFLDWLR [L12T], the protein stability index falls from 2.34 to 2.21.

Going from QEKLQVLMAEGQLPAVKVFLDWLR [L12Q] to QEKLQVYMAEGLLPAVKVFLDWLR [L7Y], the protein stability index falls from 2.1 to 1.86.

First: QEKLQVWMAEGLLPAVKVFLDWLR [L7W]
Second: QEKLQVLMAWGLLPAVKVFLDWLR [E10W]
The protein stability index of the first is higher: 3.24 for the first, 1.65 for the second.
